These results are taken from patent publication US20250353917A1 (SYSTIMMUNE, published 2025).

The target in this test is EGFR on BxPC-3 cells (UniProt P00533 25-1210, limits assumed). Put plainly: cell-based or functional assay.

B1: SI-68P13 (other)
heavy: EIVLTQSPSTLSVSPGERATFSCRASQSIGTNIHWYQQKPGKPPRLLIKYASESISGIPDRFSGSGSGTEFTLTISSVQSEDFAVYYCQQNNNWPTTFGPGTKLTVLGGGGSGGGGSGGGGSGGGGSQVQLQQSGPGLVKPSETLSITCTVSGFSLTNYGVHWIRQAPGKGLEWLGVIWSGGNTDYNTPFTSRFTITKDNSKNQVYFKLRSVRADDTAIYYCARALTYYDYEFAYWGQGTLVTVSSGGGGSGGGGSEVQLVESGGGLVQPGGSLRLSCAASGFTISTNAMSWVRQAPGKGLEWIGVITGRDITYYASWAKGRFTISRDNSKNTLYLQMNSLRAEDTAVYYCARDGGSSAITSNNIWGQGTLVTVSSASTKGPSVFPLAPSSKSTSGGTAALGCLVKDYFPEPVTVSWNSGALTSGVHTFPAVLQSSGLYSLSSVVTVPSSSLGTQTYICNVNHKPSNTKVDKRVEPKSCDKTHTCPPCPAPEAAGGPSVFLFPPKPKDTLMISRTPEVTCVVVDVSHEDPEVKFNWYVDGVEVHNAKTKPREEQYNSTYRVVSVLTVLHQDWLNGKEYKCAVSNKALPAPIEKTISKAKGQPREPQVYTLPPSRDELTKNQVSLSCAVKGFYPSDIAVEWESNGQPENNYKTTPPVLDSDGSFFLVSKLTVDKSRWQQGNVFSCSVMHEALHNHYTQKSLSLSPGGGGGSGGGGSDVVMTQSPSSVSASVGDRVTITCQASQNIRTYLSWYQQKPGKAPKLLIYAAANLASGVPSRFSGSGSGTDFTLTISDLEPGDAATYYCQSTYLGTDYVGGAFGGGTKLTVLGGGGSGGGGSGGGGSGGGGSEVQLVESGGGLVQPGGSLRLSCTASGFTISSYHMQWVRQAPGKGLEYIGTISSGGNVYYASSARGRFTISRPSSKNTVDLQMNSLRAEDTAVYYCARDSGYSDPMWGQGTLVTVSS
light: ENVLTQSPASLSASPGERVTITCSASSSVSYMHWYQQKPGQAPKLWIYDTSKLASGVPSRFSGSGSGNDHTLTISSMEPEDFATYYCFQGSVYPFTFGQGTKVTVLGGGGSGGGGSGGGGSGGGGSQVTLKESGPGLVQPGQTLSLTCAFSGFSLSTSGMGVGWIRQPPGKGLEWLAHIWWDDDKRYNPALKSRLTISKDTSKNQVYLQMNSLDAEDTAVYYCARMELWSYYFDYWGQGTLVTVSSGGGGSGGGGSDVVMTQSPSTLSASVGDRVTINCQASESISSWLAWYQQKPGKAPKLLIYEASKLASGVPSRFSGSGSGTEFTLTISSLQPDDFATYYCQGYFYFISRTYVNSFGGGTKVEIKRTVAAPSVFIFPPSDEQLKSGTASVVCLLNNFYPREAKVQWKVDNALQSGNSQESVTEQDSKDSTYSLSSTLTLSKADYEKHKVYACEVTHQGLSSPVTKSFNRGECGGDKTHTCPPCPAPEAAGGPSVFLFPPKPKDTLMISRTPEVTCVVVDVSHEDPEVKFNWYVDGVEVHNAKTKPREEQYNSTYRVVSVLTVLHQDWLNGKEYKCAVSNKALPAPIEKTISKAKGQPREPQVYTLPPSRDELTKNQVSLWCLVKGFYPSDIAVEWESNGQPENNYKTTPPVLDSDGSFFLYSKLTVDKSRWQQGNVFSCSVMHEALHNRFTQKSLSLSPGGGGGSGGGGSDIQMTQSPSTLSASVGDRVTITCQASQSISSHLNWYQQKPGKAPKLLIYKASTLASGVPSRFSGSGSGTEFTLTISSLQPDDFATYYCQQGYSWGNVDNVFGGGTKVTVLGGGGSGGGGSGGGGSGGGGSEVQLLESGGGLVQPGGSLSLSCAASGFSFSSGYDMCWVRQAPGKGLEWIACIAAGSAGITYDANWAKGRFTISRDNSKNTLYLQMNSLRAEDTAVYYCARSAFSFDYAMDLWGQGTLVTVSS
B1: the “TDCC EC50 (pM)” value was 0.259 pM.
